Experimental data as given in patent US20180127503A1 (EUREKA THERAPEUTICS, published 2018).

Tests used:
[1] = biological target: T1, human ROR2 expressed on the cell surface (human, UniProt Q01974 34-943); assay: flow cytometry, BE(1)N cells (neuroblastoma); parameters: unit not given here
T1 construct: Endogenous ROR2 of human tumour cell lines; also called cell surface ROR2; ROR2 on tumour cell lines
Description: (§1) Human tumour cell lines were authenticated using short tandem repeat (STR) analysis. They were cultured in RPMI1640 (Cellgro) supplemented with 10% fetal bovine serum (FBS, Life Technologies) at 37° C. in a 5% CO₂ humidified incubator. They were harvested, washed in PBS and reacted with ROR2-IgG at 1 ug/10⁶ tumour cells on ice for an hour. #901-IgG was used as a negative control at the same dose. After washing, a secondary PE-conjugated goat anti-human IgG, Fcγ fragment specific (1:100, Jackson ImmunoResearch) was added for another 30 min incubation. Staining was analyzed on a FACSCalibur (BD Biosciences). ROR2 (full length) antibody binding towards multiple cancer cell lines were compared with Rituxan and Herceptin antibodies. The cancer cell lines were derived from breast cancer, colorectal cancer, mesothelioma, hepatocellular carcinoma, ovarian cancer, osteosarcoma, neuroblastoma, etc. ROR2 #90 antibody could recognize most of the tumour cells tested, and in some cases, the binding intensity was higher than Herceptin (see Tables 8 to 10).

[2] = biological target: T1, human ROR2 expressed on the cell surface; assay: flow cytometry, SKOV3 cells (ovarian CA); parameters: unit not given here
Description: as §1

[3] = biological target: T1, human ROR2 expressed on the cell surface; assay: flow cytometry, RG187 cells (osteosarcoma); parameters: unit not given here
Description: as §1

[4] = biological target: T1, human ROR2 expressed on the cell surface; assay: flow cytometry, SKMEL-5 cells (melanoma); parameters: unit not given here
Description: as §1

[5] = biological target: T1, human ROR2 expressed on the cell surface; assay: flow cytometry, M14 cells (melanoma); parameters: reference not given here
Description: as §1

[6] = biological target: T1, human ROR2 expressed on the cell surface; assay: flow cytometry, BE(2)S cells (neuroblastoma); parameters: unit not given here
Description: as §1

[7] = biological target: T1, human ROR2 expressed on the cell surface; assay: flow cytometry, HTB37-Caco2 cells (CRC); parameters: unit not given here
Description: as §1

[8] = biological target: T1, human ROR2 expressed on the cell surface; assay: flow cytometry, SKHEP-1 cells (HCC); parameters: unit not given here
Description: as §1

[9] = biological target: T1, human ROR2 expressed on the cell surface; assay: flow cytometry, COLO 205 cells (CRC); parameters: unit not given here
Description: as §1

[10] = biological target: T1, human ROR2 expressed on the cell surface; assay: flow cytometry, HTB132 cells (breast CA); parameters: unit not given here
Description: as §1

[11] = biological target: T1, human ROR2 expressed on the cell surface; assay: flow cytometry, CHP100 cells (EW/PNET); parameters: unit not given here
Description: as §1

[12] = biological target: T1, human ROR2 expressed on the cell surface; assay: flow cytometry, OCM1 cells (melanoma); parameters: unit not given here
Description: as §1

[13] = biological target: T1, human ROR2 expressed on the cell surface; assay: flow cytometry, HEP G2 cells (HCC); parameters: unit not given here
Description: as §1

[14] = biological target: T1, human ROR2 expressed on the cell surface; assay: flow cytometry, LAN-1 cells (neuroblastoma); parameters: unit not given here
Description: as §1

[15] = biological target: T2, human ROR2 extracellular domain (ROR2 ECD recombinant protein) (human, UniProt Q01974 34-403); assay: kinetic binding analysis, full length IgG1 on human ROR2-ECD
T2 construct: also called human ROR2-ECD; hROR2-ECD
T2 sequence (Q01974 34-403): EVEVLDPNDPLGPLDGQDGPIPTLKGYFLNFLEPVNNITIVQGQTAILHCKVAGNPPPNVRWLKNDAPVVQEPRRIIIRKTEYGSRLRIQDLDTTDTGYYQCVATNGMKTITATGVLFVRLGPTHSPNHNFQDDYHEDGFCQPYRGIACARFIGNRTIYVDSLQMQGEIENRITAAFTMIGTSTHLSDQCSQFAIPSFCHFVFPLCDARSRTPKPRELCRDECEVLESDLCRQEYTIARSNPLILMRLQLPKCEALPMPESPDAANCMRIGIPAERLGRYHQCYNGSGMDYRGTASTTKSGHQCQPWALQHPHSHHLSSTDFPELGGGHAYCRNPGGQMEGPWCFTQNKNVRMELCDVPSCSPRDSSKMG

[16] = biological target: T1, human ROR2 expressed on the cell surface; assay: flow cytometry, SKNSH cells (neuroblastoma); parameters: unit not given here
Description: as §1

[17] = biological target: T1, human ROR2 expressed on the cell surface; assay: flow cytometry, HTB26 (MDA-MB-231) cells (breast CA); parameters: unit not given here
Description: as §1

[18] = biological target: T1, human ROR2 expressed on the cell surface; assay: flow cytometry, JN DSRCT cells (DSRCT); parameters: unit not given here
Description: as §1

[19] = biological target: T1, human ROR2 expressed on the cell surface; assay: flow cytometry, SKBR3 cells (breast CA); parameters: reference not given here
Description: as §1

[20] = biological target: T1, human ROR2 expressed on the cell surface; assay: flow cytometry, U2OS cells (osteosarcoma); parameters: unit not given here
Description: as §1

[21] = biological target: T1, human ROR2 expressed on the cell surface; assay: flow cytometry, H69 cells (SCLC); parameters: unit not given here
Description: as §1

[22] = biological target: T1, human ROR2 expressed on the cell surface; assay: flow cytometry, NB5 cells (neuroblastoma); parameters: unit not given here
Description: as §1

[23] = biological target: T1, human ROR2 expressed on the cell surface; assay: flow cytometry, OVCAR3 cells (ovarian CA); parameters: unit not given here
Description: as §1

[24] = biological target: T1, human ROR2 expressed on the cell surface; assay: flow cytometry, TC32 cells (EW/PNET); parameters: unit not given here
Description: as §1

[25] = biological target: T1, human ROR2 expressed on the cell surface; assay: flow cytometry, IMR32 cells (neuroblastoma); parameters: unit not given here
Description: as §1

[26] = biological target: T1, human ROR2 expressed on the cell surface; assay: flow cytometry, SKES-1 cells (EW/PNET); parameters: unit not given here
Description: as §1

[27] = biological target: T1, human ROR2 expressed on the cell surface; assay: flow cytometry, TC71 cells (EW/PNET); parameters: unit not given here
Description: as §1

T1 sequence (Q01974 34-943 limits assumed): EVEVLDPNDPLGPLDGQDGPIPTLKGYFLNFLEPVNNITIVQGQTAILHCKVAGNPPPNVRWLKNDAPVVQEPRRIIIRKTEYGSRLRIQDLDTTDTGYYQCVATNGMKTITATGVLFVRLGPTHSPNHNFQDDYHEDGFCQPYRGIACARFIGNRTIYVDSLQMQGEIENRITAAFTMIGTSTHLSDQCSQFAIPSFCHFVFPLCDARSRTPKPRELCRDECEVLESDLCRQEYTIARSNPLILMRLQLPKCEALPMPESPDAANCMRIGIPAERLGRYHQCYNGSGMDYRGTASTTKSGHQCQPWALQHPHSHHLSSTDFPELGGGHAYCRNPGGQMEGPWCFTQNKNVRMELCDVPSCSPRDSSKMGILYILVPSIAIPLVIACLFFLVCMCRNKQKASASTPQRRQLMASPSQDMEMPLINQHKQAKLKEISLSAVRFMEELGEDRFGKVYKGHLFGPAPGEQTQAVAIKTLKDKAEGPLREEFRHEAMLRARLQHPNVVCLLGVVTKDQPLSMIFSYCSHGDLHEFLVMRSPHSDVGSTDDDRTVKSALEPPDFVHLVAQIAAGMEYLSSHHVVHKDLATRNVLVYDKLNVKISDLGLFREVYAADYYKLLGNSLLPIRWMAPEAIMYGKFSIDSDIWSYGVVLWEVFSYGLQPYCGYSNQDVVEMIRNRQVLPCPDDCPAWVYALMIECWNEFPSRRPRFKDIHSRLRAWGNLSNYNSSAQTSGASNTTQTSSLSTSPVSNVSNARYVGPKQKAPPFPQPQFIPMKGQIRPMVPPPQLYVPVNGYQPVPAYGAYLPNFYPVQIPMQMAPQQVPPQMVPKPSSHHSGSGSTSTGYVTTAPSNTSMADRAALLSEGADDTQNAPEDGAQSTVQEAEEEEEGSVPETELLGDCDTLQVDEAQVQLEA

binding intensity [1]: 302 | binding intensity [2]: 246 | binding intensity [3]: 79 | binding intensity [4]: 8 | binding intensity [5]: 17 | binding intensity [6]: 40 | binding intensity [7]: 91 | binding intensity [8]: 74 | binding intensity [9]: 44 | binding intensity [10]: 5 | binding intensity [11]: 57 | binding intensity [12]: 18 | binding intensity [13]: 49 | binding intensity [14]: 48 | Kd [15]: 163 pM | koff [15]: 0.000167 s⁻¹ | kon [15]: 1.02e+06 M⁻¹ s⁻¹ | binding intensity [16]: 105 | binding intensity [17]: 19 | binding intensity [18]: 84 | binding intensity [19]: 98 | binding intensity [20]: 94 | binding intensity [21]: 15 | binding intensity [22]: 47 | binding intensity [23]: 48 | binding intensity [24]: 70 | binding intensity [25]: 51 | binding intensity [26]: 28 | binding intensity [27]: 68
B1: ROR2-90 full length human IgG1 antibody (antibody, V domains shown)
VH: EVQLVESGPGLVKPSQTLSLTCTVSGGSISSGGYYWSWIRQHPGKGLEWIGYIYYSGSTYYNPSLKSRVTISVDTSKNQFSLKLSSVTAADTAMYYCARGGLYWTYSQDVWGQGTLVTVSS
VL: QPVLTQPPSASGTPGQRVTISCSGSSSNIGSDYVSWYQQLPGTAPKLLIYRNDQRPSGVPDRFSGSKSGTSASLAISGLRSEDEADYYCVAWDDSLSGYVFGSGTKVTVLG
notes: also called clone #90; antibody #90
